From article PMC12416549 (2024)
Changes are numbered by the printed parent chain. In names and notes the source's numbering stands. One block for each binder: values may come before it.

Biological target: T1, TNFR1 (Homo sapiens, UniProt P19438)
T1 chain: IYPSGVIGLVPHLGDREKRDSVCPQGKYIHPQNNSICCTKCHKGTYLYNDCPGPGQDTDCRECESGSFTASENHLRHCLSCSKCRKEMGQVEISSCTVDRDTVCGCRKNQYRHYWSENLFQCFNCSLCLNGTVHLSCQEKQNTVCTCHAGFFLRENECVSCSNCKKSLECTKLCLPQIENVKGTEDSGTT
Assay: yeast display SC50

B5: A47I (designed binder)
chain: SMEEEVEKAAKEYEKKKKEAIEKHLEKLKAKDKEAAERFLKELEEAIKEYAKDEAKTMSEEEAKRRAKKYKEKVLLSELSEEEQKEIKEAEEKLVRTILKYVEEAAK
apparent Kd (screen): 0.49 nM

B6: I21D (designed binder)
chain: B5 chain with I21D, I47A
apparent Kd (screen): 10.4 nM

B9: E19M (designed binder)
chain: B5 chain with E19M, I47A
apparent Kd (screen): 0.446 nM

B12: K29A (designed binder)
chain: B5 chain with K29A, I47A
apparent Kd (screen): 0.446 nM

B21: E12I (designed binder)
chain: B5 chain with E12I, I47A
apparent Kd (screen): 1.05 nM

B22: E34K (designed binder)
chain: B5 chain with E34K, I47A
apparent Kd (screen): 0.539 nM

B23: K27R (designed binder)
chain: B5 chain with K27R, I47A
apparent Kd (screen): 0.869 nM

B24: A20Q (designed binder)
chain: B5 chain with A20Q, I47A
apparent Kd (screen): 1.69 nM

B25: E12N (designed binder)
chain: B5 chain with E12N, I47A
apparent Kd (screen): 1.16 nM

B26: A30K (designed binder)
chain: B5 chain with A30K, I47A
apparent Kd (screen): 0.956 nM

B27: L25Y (designed binder)
chain: B5 chain with L25Y, I47A
apparent Kd (screen): 0.446 nM

B29: D32S (designed binder)
chain: B5 chain with D32S, I47A
apparent Kd (screen): 0.446 nM

B30: E26I (designed binder)
chain: B5 chain with E26I, I47A
apparent Kd (screen): 1.16 nM

B34: E7G (designed binder)
chain: B5 chain with E7G, I47A
apparent Kd (screen): 3 nM

B37: K8Y (designed binder)
chain: B5 chain with K8Y, I47A
apparent Kd (screen): 0.956 nM

B38: E42V (designed binder)
chain: B5 chain with E42V, I47A
apparent Kd (screen): 1.16 nM

B40: K18V (designed binder)
chain: B5 chain with K18V, I47A
apparent Kd (screen): 1.27 nM

B41: A20S (designed binder)
chain: B5 chain with A20S, I47A
apparent Kd (screen): 0.446 nM

B44: L28S (designed binder)
chain: B5 chain with L28S, I47A
apparent Kd (screen): 0.49 nM

B45: E5F (designed binder)
chain: B5 chain with E5F, I47A
apparent Kd (screen): 1.05 nM

B46: E37F (designed binder)
chain: B5 chain with E37F, I47A
apparent Kd (screen): 0.49 nM

B47: E26G (designed binder)
chain: B5 chain with E26G, I47A
apparent Kd (screen): 0.593 nM

B48: A9P (designed binder)
chain: B5 chain with A9P, I47A
apparent Kd (screen): 13.8 nM

B51: E14N (designed binder)
chain: B5 chain with E14N, I47A
apparent Kd (screen): 5.31 nM

B53: A30Q (designed binder)
chain: B5 chain with A30Q, I47A
apparent Kd (screen): 0.593 nM

B57: E45Y (designed binder)
chain: B5 chain with E45Y, I47A
apparent Kd (screen): 2.73 nM

Now from value to binder:

apparent Kd (screen): 0.869 nM
B1: K100T (designed binder)
chain: B5 chain with I47A, K100T

apparent Kd (screen): 2.73 nM
B2: E89K (designed binder)
chain: B5 chain with I47A, E89K

apparent Kd (screen): 0.49 nM
B3: A90F (designed binder)
chain: B5 chain with I47A, A90F

apparent Kd (screen): 6.43 nM
B4: A63N (designed binder)
chain: B5 chain with I47A, A63N

apparent Kd (screen): 7.78 nM
B7: L99K (designed binder)
chain: B5 chain with I47A, L99K

apparent Kd (screen): 1.69 nM
B8: A105I (designed binder)
chain: B5 chain with I47A, A105I

apparent Kd (screen): 10.4 nM
B10: K73V (designed binder)
chain: B5 chain with I47A, K73V

apparent Kd (screen): 0.446 nM
B11: Y101V (designed binder)
chain: B5 chain with I47A, Y101V

apparent Kd (screen): 2.73 nM
B13: K107L (designed binder)
chain: B5 chain with I47A, K107L

apparent Kd (screen): 20.2 nM
B14: E54D (designed binder)
chain: B5 chain with I47A, E54D

apparent Kd (screen): 2.73 nM
B15: E78P (designed binder)
chain: B5 chain with I47A, E78P

apparent Kd (screen): 1.86 nM
B16: K107I (designed binder)
chain: B5 chain with I47A, K107I

apparent Kd (screen): 7.07 nM
B17: E54P (designed binder)
chain: B5 chain with I47A, E54P

apparent Kd (screen): 0.446 nM
B18: A90D (designed binder)
chain: B5 chain with I47A, A90D

apparent Kd (screen): 1.16 nM
B19: Y50T (designed binder)
chain: B5 chain with I47A, Y50T

apparent Kd (screen): 0.653 nM
B20: K68Q (designed binder)
chain: B5 chain with I47A, K68Q

apparent Kd (screen): 1.05 nM
B28: K52F (designed binder)
chain: B5 chain with I47A, K52F

apparent Kd (screen): 0.405 nM
B31: K88A (designed binder)
chain: B5 chain with I47A, K88A

apparent Kd (screen): 0.446 nM
B32: E83V (designed binder)
chain: B5 chain with I47A, E83V

apparent Kd (screen): 18.3 nM
B33: E54R (designed binder)
chain: B5 chain with I47A, E54R

apparent Kd (screen): 12.5 nM
B35: A51N (designed binder)
chain: B5 chain with I47A, A51N

apparent Kd (screen): 12.5 nM
B36: I87T (designed binder)
chain: B5 chain with I47A, I87T

apparent Kd (screen): 4.83 nM
B39: Y70A (designed binder)
chain: B5 chain with I47A, Y70A

apparent Kd (screen): 0.49 nM
B42: K69H (designed binder)
chain: B5 chain with I47A, K69H

apparent Kd (screen): 0.49 nM
B43: K69M (designed binder)
chain: B5 chain with I47A, K69M

apparent Kd (screen): 0.653 nM
B49: K71L (designed binder)
chain: B5 chain with I47A, K71L

apparent Kd (screen): 1.27 nM
B50: E49S (designed binder)
chain: B5 chain with I47A, E49S

apparent Kd (screen): 22.2 nM
B52: I87P (designed binder)
chain: B5 chain with I47A, I87P

apparent Kd (screen): 0.539 nM
B54: V102D (designed binder)
chain: B5 chain with I47A, V102D

apparent Kd (screen): 4.39 nM
B55: E54L (designed binder)
chain: B5 chain with I47A, E54L

apparent Kd (screen): 13.8 nM
B56: Q84Y (designed binder)
chain: B5 chain with I47A, Q84Y

apparent Kd (screen): 0.446 nM
B58: K52T (designed binder)
chain: B5 chain with I47A, K52T

apparent Kd (screen): 10.4 nM
B59: A63D (designed binder)
chain: B5 chain with I47A, A63D
